Results published in paper PMC6321254.

How the values were obtained:
[1] = biological target: HA-CXCR1-RLuc (human) (UniProt P25024)
[2] = biological target: HA-CXCR1-RLuc (human) (UniProt P25024); remark: listed apart in the source
[3] = biological target: HA-CXCR1-RLuc (human) (UniProt P25024); remark: listed apart in the source

Sequence of HA-CXCR1-RLuc (human) (P25024 2-350): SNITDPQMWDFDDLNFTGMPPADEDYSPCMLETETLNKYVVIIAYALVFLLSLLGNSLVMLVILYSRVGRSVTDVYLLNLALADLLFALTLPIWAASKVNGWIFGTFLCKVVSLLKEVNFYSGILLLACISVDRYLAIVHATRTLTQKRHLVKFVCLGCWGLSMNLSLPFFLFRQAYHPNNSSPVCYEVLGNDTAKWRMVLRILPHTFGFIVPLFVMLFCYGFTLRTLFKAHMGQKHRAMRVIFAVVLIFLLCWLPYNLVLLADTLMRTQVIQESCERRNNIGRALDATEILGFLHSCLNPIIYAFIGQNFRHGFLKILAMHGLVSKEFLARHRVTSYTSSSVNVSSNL

Row | internalization of endogenous CXCR1 on freshly purified human neutrophils (flow cytometry of surface receptor; 0.1-100 nM, 1 h, 37 °C); lowest concentration with a significant effect [1] [nM] | Gαi-dependent reduction of forskolin-raised cAMP (AlphaScreen cAMP assay) in HEK-293T cells transfected with CXCR1 (pcDNA6 construct without RLuc); 0.1-100 nM; potency against CXCL8(1-77) (fold (against CXCL8(1-77))) [2] | potency to induce recruitment of β-arrestin 2-EYFP to CXCR1-RLuc (BRET dose-response, HEK-293T), against CXCL8(1-77) (fold (against CXCL8(1-77))) [3] | Substance
1 | > 10 |  |  | CXCL8(1-77) (ligand)
2 |  | > 10 |  | [Cit5]CXCL8(1-77) (ligand)
3 |  | > 10 | 10 | CXCL8(6-77) (ligand)
